Measured values from patent US20050221488.

Tested on: Spo11 (Saccharomyces cerevisiae)
Test: cell_activity
Details: wild-type Spo11 without Gal4BD; DSBs barely detectable

GAL2 promoter UASGAL sites
activity (% DSB frequency): < 0.6
